From patent publication US20240117018A1

Legend:
Assay in all cases: cell-based or functional assay
[1] = target: HIV-1 Env pseudovirus ZM233M.PB6 (HIV-1)
[2] = target: HIV-1 Env pseudovirus HIV-0013095-2.11 (HIV-1)
[3] = target: HIV-1 Env pseudovirus Ce2060_G9 (HIV-1)
[4] = target: HIV-1 Env pseudovirus Du156.12 (HIV-1)
[5] = target: HIV-1 Env pseudovirus CNE17 (HIV-1)
[6] = target: HIV-1 Env pseudovirus Du172.17 (HIV-1)
[7] = target: HIV-1 Env pseudovirus PVO.4 (HIV-1)
[8] = target: HIV-1 Env pseudovirus WITO4160.33 (HIV-1)
[9] = target: HIV-1 Env pseudovirus SC422661.8 (HIV-1)
[10] = target: HIV-1 Env pseudovirus CAAN5342.A2 (HIV-1)
[11] = target: HIV-1 Env pseudovirus ZM214M.PL15 (HIV-1)
[12] = target: HIV-1 Env pseudovirus 7030102001E5(Rev-) (HIV-1)
[13] = target: HIV-1 Env pseudovirus Q842.d12 (HIV-1)
[14] = target: HIV-1 Env pseudovirus Ce1176_A3 (HIV-1)
[15] = target: HIV-1 Env pseudovirus CNE19 (HIV-1)
[16] = target: HIV-1 Env pseudovirus 1006_11_C3_1601 (HIV-1)
[17] = target: HIV-1 Env pseudovirus Q23.17 (HIV-1)
[18] = target: HIV-1 Env pseudovirus QH0692.42 (HIV-1)

**Q.** For N49P11 (antibody), which IC50 [1] is on record?
**A.** 5.92 mg/L

**Q.** What about the IC80 [1] of the same substance?
**A.** 18.5 mg/L

**Q.** And the MPI [1]?
**A.** 100

**Q.** And the IC50 [2]?
**A.** 5.85 mg/L

**Q.** And the IC80 [2]?
**A.** 17.8 mg/L

**Q.** And the MPI [2]?
**A.** 100

**Q.** What about the IC50 [3] of the same substance?
**A.** 3.33 mg/L

**Q.** And the IC80 [3]?
**A.** 13.2 mg/L

**Q.** And the MPI [3]?
**A.** 100

**Q.** And the IC50 [4]?
**A.** 2.4 mg/L

**Q.** And the IC80 [4]?
**A.** 12 mg/L

**Q.** And the MPI [4]?
**A.** 100

**Q.** And the IC50 [5]?
**A.** 6.68 mg/L

**Q.** What about the IC80 [5] of the same substance?
**A.** 25.6 mg/L

**Q.** What about the MPI [5] of the same substance?
**A.** 100

**Q.** What about the IC50 [6] of the same substance?
**A.** 5.65 mg/L

**Q.** What about the IC80 [6] of the same substance?
**A.** 17.9 mg/L

**Q.** And the MPI [6]?
**A.** 100

**Q.** And the IC50 [7]?
**A.** 0.248 mg/L

**Q.** What about the IC80 [7] of the same substance?
**A.** 1.17 mg/L

**Q.** And the MPI [7]?
**A.** 100

**Q.** What about the IC50 [8] of the same substance?
**A.** 4.86 mg/L

**Q.** And the IC80 [8]?
**A.** 13.2 mg/L

**Q.** And the MPI [8]?
**A.** 100

**Q.** What about the IC50 [9] of the same substance?
**A.** 0.729 mg/L

**Q.** And the IC80 [9]?
**A.** 3.49 mg/L

**Q.** And the MPI [9]?
**A.** 100

**Q.** And the IC50 [10]?
**A.** 9.03 mg/L

**Q.** What about the IC80 [10] of the same substance?
**A.** 20.8 mg/L

**Q.** And the MPI [10]?
**A.** 100

**Q.** And the IC50 [11]?
**A.** 1.35 mg/L

**Q.** And the IC80 [11]?
**A.** 8.98 mg/L

**Q.** What about the MPI [11] of the same substance?
**A.** 100

**Q.** And the IC50 [12]?
**A.** 0.635 mg/L

**Q.** What about the IC80 [12] of the same substance?
**A.** 2.29 mg/L

**Q.** And the MPI [12]?
**A.** 100

**Q.** And the IC50 [13]?
**A.** 0.027 mg/L

**Q.** And the IC80 [13]?
**A.** 0.103 mg/L

**Q.** And the MPI [13]?
**A.** 100

**Q.** What about the IC50 [14] of the same substance?
**A.** 0.946 mg/L

**Q.** What about the IC80 [14] of the same substance?
**A.** 6.05 mg/L

**Q.** What about the MPI [14] of the same substance?
**A.** 100

**Q.** And the IC50 [15]?
**A.** 0.437 mg/L

**Q.** And the IC80 [15]?
**A.** 5.5 mg/L

**Q.** What about the MPI [15] of the same substance?
**A.** 100

**Q.** What about the IC50 [16] of the same substance?
**A.** 0.125 mg/L

**Q.** What about the IC80 [16] of the same substance?
**A.** 0.487 mg/L

**Q.** And the MPI [16]?
**A.** 100

**Q.** What about the IC50 [17] of the same substance?
**A.** 0.034 mg/L

**Q.** And the IC80 [17]?
**A.** 0.254 mg/L

**Q.** What about the MPI [17] of the same substance?
**A.** 100

**Q.** What about the IC50 [18] of the same substance?
**A.** 0.55 mg/L

**Q.** And the IC80 [18]?
**A.** 2.65 mg/L

**Q.** What about the MPI [18] of the same substance?
**A.** 100

**Q.** Which results are given for N49P18.1 (antibody)?
**A.** IC50 [1]: 38.4 mg/L; IC80 [1]: > 50 mg/L; MPI [1]: 57; IC50 [2]: > 50 mg/L; IC80 [2]: > 50 mg/L; MPI [2]: 48; IC50 [3]: > 50 mg/L; IC80 [3]: > 50 mg/L; MPI [3]: 37; IC50 [4]: 1.88 mg/L; IC80 [4]: 6.81 mg/L; MPI [4]: 100; IC50 [5]: 39.7 mg/L; IC80 [5]: > 50 mg/L; MPI [5]: 56; IC50 [6]: 6.52 mg/L; IC80 [6]: 21.3 mg/L; MPI [6]: 92; IC50 [7]: 9.65 mg/L; IC80 [7]: 40.2 mg/L; MPI [7]: 84; IC50 [8]: 11 mg/L; IC80 [8]: 37.6 mg/L; MPI [8]: 87; IC50 [9]: 14.1 mg/L; IC80 [9]: 43.4 mg/L; MPI [9]: 84; IC50 [10]: 16.1 mg/L; IC80 [10]: 49.1 mg/L; MPI [10]: 83; IC50 [11]: > 50 mg/L; IC80 [11]: > 50 mg/L; MPI [11]: 20; IC50 [12]: 6.35 mg/L; IC80 [12]: 17.7 mg/L; MPI [12]: 98; IC50 [13]: 3.04 mg/L; IC80 [13]: 8.13 mg/L; MPI [13]: 100; IC50 [14]: 32.5 mg/L; IC80 [14]: > 50 mg/L; MPI [14]: 61; IC50 [15]: 2.34 mg/L; IC80 [15]: 9.64 mg/L; MPI [15]: 99; IC50 [16]: 2.8 mg/L; IC80 [16]: 9.66 mg/L; MPI [16]: 99; IC50 [17]: 1.16 mg/L; IC80 [17]: 6.93 mg/L; MPI [17]: 100; IC50 [18]: > 50 mg/L; IC80 [18]: > 50 mg/L; MPI [18]: 43
